Patent US11078465B2, “Alcohol dehydrogenase mutant and application thereof in synthesis of diaryl chiral alcohols” (Jiangnan University, priority 2018, dated 2021)
Values joined by “and” are separate entries in the source; they are usually repeats but may differ in a detail not shown here. Equal entries are not always repeated. “Also recorded” adds a separate entry of the source.

Key:
Assay type in all cases: biochemical
[1] = Kinetic analysis of alcohol dehydrogenase and mutants (NADPH oxidation, 340 nm, double reciprocal curve); conditions: substrate CPMK
Method: (§1) Adopting a total reaction system of 200 μL, including: 1.0 mM NADPH, 1.0 mM substrate CPMK and sodium phosphate buffer (PBS, 100 mM, pH 7.0), fully and evenly mixing, maintaining at 30° C. for 2 min, adding an appropriate amount of enzyme solution, and detecting the change in light absorption at 340 nm.
(§2) The enzyme activity was calculated by the following formula: Enzyme activity (U)=EW×V×10^3/(6220×I);
(§3) in the formula, EW is the change in absorbance at 340 nm in 1 min; V is the volume of a reaction solution in mL; 6220 is the molar extinction coefficient of NADPH in L/mol·cm); and 1 is the optical path distance in cm. One activity unit (U) corresponds to the amount of enzyme required to catalyze the oxidation of 1 μmol NADPH per minute under the above conditions.
A column used for purification was a nickel affinity column HisTrap FF crude, and purification was achieved through affinity chromatography using a histidine tag on recombinant protein. The nickel column was equilibrated with a solution A first, a crude enzyme solution was loaded, a penetrating peak was further eluted off using the solution A, and after equilibrium, a solution B (20 mM sodium phosphate, 500 mM NaCl, and 1000 mM imidazole, pH 7.4) was used for gradient elution to elute off the recombinant protein bound to the nickel column, so as to obtain the recombinant alcohol dehydrogenase mutant. The purified protein was subjected to activity measurement (CPMK as substrate, and NADPH as coenzyme) and SDS-PAGE analysis. […] The purified alcohol dehydrogenase protein was then replaced into a Tris-HCl (100 mM, pH 7.0) buffer using a Hi Trap Desalting column (GE Healthcare).
The activity of KpADH at different substrate concentrations and coenzyme concentrations was determined, and a double reciprocal curve was made based on the reciprocal of activity and substrate concentration to calculate kinetic parameters.

[2] = Stereoselectivity (ee) of CPMK reduction, chiral liquid chromatography
Method: (§4) In an embodiment of the present disclosure, a chromatographic analysis method is as follows: 100 μL of reactant liquid is taken, 500 μL of ethyl acetate is added, shaking is performed for 1-2 min, centrifugation is performed at 12,000 rpm for 2-5 min, supernatant liquid is taken into a centrifuge tube, after an organic phase naturally volatilizes completely, 500 μL of chromatographically pure ethanol is added, and chiral liquid chromatography and gas chromatography are performed to analyze the transformation rate and the ee value.
(§5) Method for determining optical purity ee:
(§6) As: molar concentration of (S)-CPMA obtained by liquid chromatography; and AR: molar concentration of (R)-CPMA obtained by liquid chromatography.

[3] = Substrate specificity, specific activity
Method: as §1, §2, §3
(§7) The reduction on prochiral carbonyl compounds by the alcohol dehydrogenase mutants obtained in Example 3 was studied. The pro-chiral carbonyl compounds include (4-chlorophenyl)-(pyridin-2-yl)-methanone (CPMK), phenyl-(pyridin-2-yl)-methanone, (4-chlorophenyl)-(phenyl)-methanone, (4-bromophenyl)(phenyl)methanone, (4-fluorophenyl)(phenyl)methanone, (4-methoxyphenyl)-(phenyl)-methanone, (4-nitrophenyl)(phenyl)methanone, 1-(pyridin-2-yl)ethanone, acetophenone, 4′-Chloroacetophenone, 4-chlorophenacyl chloride, ethyl 2-oxo-4-phenylbutanoate (OPBE), ethyl 4-chloro-3-oxobutanoate, and methyl 2-oxo-2-phenylacetate.

[4] = Stereoselectivity on different substrates; conditions: configuration in brackets
Method: as §4, §5, §6, §7
All the products above were recrystallized from ethyl acetate and gave more than 99.9% optical purity.

[5] = Stereoselectivity on different substrates; conditions: configuration in brackets; remark: listed apart in the source
Method: as §4, §5, §6, §7

[6] = Asymmetric reduction in 20 mL biocatalytic system, conversion
Method: as §4
The pure (R)-CPMA were recrystallized from ethyl acetate at 4° C. and gave 99.9% optical purity. […] Besides, the conversion cannot reach 100% with 24 h in the asymmetric reduction of (4-bromophenyl)-(phenyl)-methanone and p-nitrobenzophenone due to the low enzyme activity.

[7] = product configuration in brackets
[8] = substrate [drawing 6], 4-chlorophenacyl chloride
[9] = substrate [drawing 9], ethyl 4-chloro-3-oxobutanoate
[10] = substrate [drawing 10], acetophenone
[11] = substrate [drawing 11], 4-chloroacetophenone
[12] = substrate [drawing 12], 4-chlorobenzoyl chloride
[13] = substrate [drawing 16], (4-bromophenyl)-(phenyl)-methanone
[14] = substrate [drawing 17], p-nitrobenzophenone
[15] = substrate [drawing 14], likely CPMK (values partly match Table 4)

B1: E214Q/S237C: glutamine for glutamate at position 214 and cysteine for serine at position 237 of SEQ ID No. 2 (protein)
chain: MSVLISGASGYIAKHIVRVLLEQNYKVIGTVRSQDKADKLLKQYNNPNLSYEIVPEIANLDAFDDIFKKHGKEIKYVIHAASPVNFGAKDLEKDLVIPAINGTKNMFEAIKKYAPDTVERVVMTASYASIMTPHRQNDPTLTLDEETWNPVTEENAYENVFTAYCASKTFAEKEAWKFVKENSDAVKFKLTTIHPSFVFGPQNFDEDVTKKLNQTCEIINGLLHAPFDTKVEKTHFCQFIDVRDVAKTHVLGFQKDELINQRLLLCNGAFSQQDIVNVFNEDFPELKGQFPPEDKDTDLNKGVTGCKIDNEKTKKLLAFEFTPFHKTIHDTVYQILHKEGRV
modifications: Protein translated from synthetic DNA
Work on B1 yielded a Kcat [1] of 7.06 ± 0.63 s⁻¹, a Km [1] of 550 ± 20 µM and a Vmax [1] of 10.59 ± 0.16 µM/min/mg. The “configuration of product / stereoselectivity in words” value [2] was “inversion from the R configuration to the S configuration; also recorded: (S)-CPMA”, the e.e. [2, 7] was 44.6 (S) and the specific activity ([3]; substrate [drawing 1]) was 0.22 U/mg. The specific activity ([3]; substrate [drawing 2]) was 0.12 U/mg, the specific activity ([3]; substrate [drawing 3]) was 0.09 U/mg and the specific activity ([3]; substrate [drawing 4]) was 5.65 U/mg. It also gave a specific activity ([3]; substrate [drawing 5]) of 3.65 U/mg, a specific activity [3, 8] of 10.25 U/mg and a specific activity ([3]; substrate [drawing 7]) of 9.89 U/mg. For the same molecule, the specific activity ([3]; substrate [drawing 8]) was 22.65 U/mg, the specific activity [3, 9] was 2.65 U/mg and the “Stereoselectivity (ee)” value [4, 10] was 96.5 (R). The “Stereoselectivity (ee)” value [4, 11] was 93.5 (R), the “Stereoselectivity (ee)” value [4, 12] was 97.6 (R) and the “Stereoselectivity (ee)” value [4, 13] was 92.6 (R). The “Stereoselectivity (ee)” value [4, 14] was 93.3 (R), the “Stereoselectivity (ee)” value ([5]; substrate [drawing 13]) was 56.6 (R) and the “Stereoselectivity (ee)” value [5, 15] was 44.6 (S). For the same molecule, the “Stereoselectivity (ee)” value ([5]; substrate [drawing 15]) was 88.6 (R) and the “Stereoselectivity (ee)” value ([5]; substrate [drawing 18]) was 90.6 (R).

B2: WT: wild type alcohol dehydrogenase KpADH, amino acid sequence SEQ ID No. 2 (protein)
chain: MSVLISGASGYIAKHIVRVLLEQNYKVIGTVRSQDKADKLLKQYNNPNLSYEIVPEIANLDAFDDIFKKHGKEIKYVIHAASPVNFGAKDLEKDLVIPAINGTKNMFEAIKKYAPDTVERVVMTASYASIMTPHRQNDPTLTLDEETWNPVTEENAYENVFTAYCASKTFAEKEAWKFVKENSDAVKFKLTTIHPSFVFGPQNFDEDVTKKLNETCEIINGLLHAPFDTKVEKTHFSQFIDVRDVAKTHVLGFQKDELINQRLLLCNGAFSQQDIVNVFNEDFPELKGQFPPEDKDTDLNKGVTGCKIDNEKTKKLLAFEFTPFHKTIHDTVYQILHKEGRV
modifications: Protein translated from synthetic DNA
With B2 the “ee value, (R)-CPMA” value ([2]; R configuration product) was 82% and 81.7%, the e.e. [2, 7] was 81.7 (R) and the ee % [2, 7] was 81.7 (R) %. The specific activity ([3]; substrate [drawing 1]) was 0.99 U/mg, the specific activity ([3]; substrate [drawing 2]) was 1.34 U/mg and the specific activity ([3]; substrate [drawing 3]) was 4.15 U/mg. For the same molecule, the specific activity ([3]; substrate [drawing 4]) was 4.07 U/mg, the specific activity ([3]; substrate [drawing 5]) was 12.09 U/mg and the specific activity [3, 8] was 20.67 U/mg. The specific activity ([3]; substrate [drawing 7]) was 27.02 U/mg, the specific activity ([3]; substrate [drawing 8]) was 39.77 U/mg and the specific activity [3, 9] was 41.84 U/mg. For the same molecule, the “Stereoselectivity (ee)” value [4, 10] was 88.6 (R), the “Stereoselectivity (ee)” value [4, 11] was 92.9 (R) and the “Stereoselectivity (ee)” value [4, 12] was 95.2 (R). The “Stereoselectivity (ee)” value [4, 13] was 70.5 (S), the “Stereoselectivity (ee)” value [4, 14] was 37.6 (R) and the “Stereoselectivity (ee)” value ([5]; substrate [drawing 13]) was 27.5 (R). For the same molecule, the “Stereoselectivity (ee)” value [5, 15] was 83.7 (R), the “Stereoselectivity (ee)” value ([5]; substrate [drawing 15]) was 52.4 (S) and the “Stereoselectivity (ee)” value ([5]; substrate [drawing 18]) was 27.3 (R). The “ee in asymmetric synthesis of (R)-CPMA” value ([6]; 20 mL biocatalytic system, 30° C., pH 7.5) was 82%, the Conversion rate ([6]; CPMK 100 mM, 1 h) was 50.5% and the Conversion rate ([6]; CPMK 100 mM, 2 h) was 65.5%. The Conversion rate ([6]; CPMK 100 mM, 3 h) was 79.5%, the Conversion rate ([6]; CPMK 100 mM, 4 h) was 88.8% and the Conversion rate ([6]; CPMK 100 mM, 6 h) was 98.5%. The Conversion rate ([6]; CPMK 100 mM, 8 h) was >99.9%, the Conversion rate ([6]; CPMK 100 mM, 12 h) was >99.9% and the Conversion rate ([6]; CPMK 100 mM, 24 h) was >99.9%. For the same molecule, the Conversion rate ([6]; CPMK 200 mM, 1 h) was 35.6%, the Conversion rate ([6]; CPMK 200 mM, 2 h) was 46.9% and the Conversion rate ([6]; CPMK 200 mM, 3 h) was 62.0%. It also gave a Conversion rate ([6]; CPMK 200 mM, 4 h) of 75.5%, a Conversion rate ([6]; CPMK 200 mM, 6 h) of 95.6% and a Conversion rate ([6]; CPMK 200 mM, 8 h) of 98.8%. The Conversion rate ([6]; CPMK 200 mM, 12 h) was 99.4%, the Conversion rate ([6]; CPMK 200 mM, 24 h) was 99.7% and the Conversion rate ([6]; CPMK 500 mM, 1 h) was 22.5%. For the same molecule, the Conversion rate ([6]; CPMK 500 mM, 2 h) was 30%, the Conversion rate ([6]; CPMK 500 mM, 3 h) was 55.6% and the Conversion rate ([6]; CPMK 500 mM, 4 h) was 66.5%. It also gave a Conversion rate ([6]; CPMK 500 mM, 6 h) of 80.2%, a Conversion rate ([6]; CPMK 500 mM, 8 h) of 93.2% and a Conversion rate ([6]; CPMK 500 mM, 12 h) of 95.6%. For the same molecule, the Conversion rate ([6]; CPMK 500 mM, 24 h) was 99.2%.
